From US8809287B2, “Compositions and methods for altering Wnt autocrine signaling” (Icahn School of Medicine at Mount Sinai, priority 2004, dated 2014)

Tests used:
[1] = tested on: uncomplexed β-catenin; test: GST-E-cadherin binding assay / immunoblot, NIH3T3 cells expressing β-catenin under Tet promoter; type: cell-based, mouse; settings: β-catenin under tet regulatable promoter, purified DKK1 (10 nM)
Method: β-catenin levels were assessed using the GST-E-cadherin binding assay, which has been previously described (Bafico et al., (1998) Oncogene 16:2819-2825). Briefly, bacterially expressed GST-E-cadherin was purified with glutathione-Sepharose beads and incubated with 1 mg of each cell lysate. The GST-E-cadherin/[…]-catenin complex bound to the beads was recovered by centrifugation and analyzed by SDS-PAGE followed by immunoblotting. The uncomplexed β-catenin was detected using a monoclonal antibody to β-catenin (Transduction Laboratories). Unphosphorylated β-catenin was detected with a monoclonal antibody specific for β-catenin dephosphorylated at residues 27-37 (Alexis, Läufelfingen, Switzerland). FRP1-HA and DKK1-HA were detected with an anti-HA monoclonal antibody (Hybridoma Center, Mount Sinai School of Medicine, New York). […]

[2] = tested on: TCF-dependent reporter activity; test: TOP-Glow/FOP-Glow TCF reporter assay in HCT116 wild type β-catenin allele clone; type: cell-based, human
Method: TCF responsive elements operably linked to a reporter (TOP-Glow, wild type, or FOP-Glow, mutant) were analyzed for transcriptional activity in […]. HCT116 (ATCC No. CCL-247) cells containing the wild type β-catenin allele were plated at 3×10^5 per well in 6-well plates and co-transfected with 1 μg of either the TOP-glow or FOP-glow plasmids (Upstate Biotechnology) and 0.001 μg of the Renilla control plasmid (pRL-CMV) utilizing FuGene® (Roche) according to the manufacturer's instructions. After 48 hours cells were lysed and analyzed utilizing the Dual Luciferase Reporter Assay system (Promega).

[3] = tested on: ID2; test: Northern blot of Id2 in HCT116 clones; type: cell-based, human; settings: HCT116 wild type β-catenin allele clone
Description: We next assessed the effects of FRP1 inhibition on the expression of Id2, Cyclin D1 and Myc, known targets of Wnt/β-catenin in colorectal cancer (Rockman et al. (2001) J. Biol. Chem. 276:45113-45119; Tetsu and McCormick (1999) Nature 398:422-426; He et al. (1998) Science 281:1509-1512). RNAs were extracted from HCT116 parental cells, and either wild type or mutant β-catenin allele containing clones transfected with either vector control or FRP1-HA using Triazol (Invitrogen). The RNAs were separated by (1%) agarose gel electrophoresis and transferred to a nylon membrane (Hybond®, Pharmacia). Probes were labeled by the Random Prime Labelling System method (Amersham Biosciences), and hybridization was performed overnight utilizing the Hybrisol I solution (Serologicals Corporation) according to the manufacturer's instructions. Normalization was performed utilizing a commercial human GADPH control probe (BD Biosciences Clontech).

B1: DKK1: Dickkopf-1, secreted Wnt antagonist protein that binds Wnt co-receptor LRP6; used purified, in conditioned media or retrovirally expressed with HA tag (protein, UniProt O94907 32-266, looked up)
Dickkopf-related protein 1: TLNSVLNSNAIKNLPPPLGGAAGHPGSAVSAAPGILYPGGNKYQTIDNYQPYPCAEDEECGTDEYCASPTRGGDAGVQICLACRKRRKRCMRHAMCCPGNYCKNGICVSSDQNHFRGEIEETITESFGNDHSTLDGYSRRTTLSSKMYHTKGQEGSVCLRSSDCASGLCCARHFWSKICKPVLKEGQVCTKHRRKGSHGLEIFQRCYCGEGLSCRIQKDHHQASNSSRLHTCQRH
modifications: HA tag in some uses
[1]
  uncomplexed β-catenin induced by exogenous β-catenin: no effect

B2: FRP1: human secreted Frizzled Related Protein 1, Wnt antagonist; expressed from pBabe-derived retrovirus with carboxy-terminal HA tag (protein, UniProt Q8N474 32-314, looked up)
Secreted frizzled-related …: SEYDYVSFQSDIGPYQSGRFYTKPPQCVDIPADLRLCHNVGYKKMVLPNLLEHETMAEVKQQASSWVPLLNKNCHAGTQVFLCSLFAPVCLDRPIYPCRWLCEAVRDSCEPVMQFFGFYWPEMLKCDKFPEGDVCIAMTPPNATEASKPQGTTVCPPCDNELKSEAIIEHLCASEFALRMKIKEVKKENGDKKIVPKKKKPLKLGPIKKKDLKKLVLYLKNGADCPCHQLDNLSHHFLIMGRKVKSQYLLTAIHKWDKKNKEFKNFMKKMKNHECPTFQSVFK
modifications: C-terminal HA tag
notes: human secreted Frizzled Related Protein 1, Wnt antagonist; expressed from pBabe-derived retrovirus with carboxy-terminal HA tag
[2]
  TCF-dependent reporter activity: able to inhibit
[3]
  Id2 transcript level: reduction
